Assays:
[1] = biological target: MD-2 (myeloid differentiation protein-2) (UniProt Q9Y6Y9); assay: SPR (BIAcore 3000): TFL amine-coupled on a CM5 chip, MD-2 at 8 to 250 nM as analyte, 25 C, 1:1 Langmuir fit
[2] = biological target: MD-2 (myeloid differentiation protein-2) (UniProt Q9Y6Y9); assay: SPR (BIAcore 3000), TFL amine-coupled on CM5 chip, MD-2 8-250 nM as analyte, 1:1 Langmuir model, 25 C

Chain of UniProt Q9Y6Y9 (Q9Y6Y9 19-160 limits assumed): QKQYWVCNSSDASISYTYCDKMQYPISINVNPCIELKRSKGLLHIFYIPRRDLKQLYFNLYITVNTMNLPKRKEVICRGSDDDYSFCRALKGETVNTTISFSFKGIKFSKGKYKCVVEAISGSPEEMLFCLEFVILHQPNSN

- Kd [1]: 81.1 nM
- koff [1]: 0.00187 s⁻¹
- kon [1]: 23100 M⁻¹ s⁻¹
- Kd [2]: 81 nM
Substance: TFL (Fc-tagged hTLR4 full-length ectodomain) (Fc fusion)
